Assay results taken from patent publication US20050118674A1, “Engineering of Controlled Deamidation Rates in Peptides, Proteins, and Similar Structures” (priority 2003, published 2005).
Where no end group is shown, it is not given here.

Assay: First-order nonenzymatic deamidation of pentapeptides in Tris buffer
Type: physicochemical
Conditions: 0.15 M Tris HCl; for First-Order Deamidation Halftimes of GlyXxxAsnYyyGly: pH 7.4, 37.0° C., Asn pentapeptides; for First-Order Deamidation Halftimes of GlyXxxGlnYyyGly: pH 7.4, 37.0 ° C., Gln pentapeptides, 52 values measured, rest derived from surface fitting
Method in brief: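 Pentapeptides containing Asn or Gln in varied flanking sequences incubated at 37° C., pH 7.4, 0.15 M Tris buffer; first-order deamidation rates measured. Some Asn values estimated from remaining data; many Gln values derived from surface fitting rather than measured.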

## GlyThrAsnHisGly (GTNHG; printed: GlyThrAsnHisGly)
  First-Order Deamidation Halftimes of GlyXxxAsnYyyGly: 9.6 days

## GlyLysGlnValGly (GKQVG; printed: GlyLysGlnValGly)
  First-Order Deamidation Halftimes of GlyXxxGlnYyyGly: 5700 days

## GlyHisAsnTrpGly (GHNWG; printed: GlyHisAsnTrpGly)
  First-Order Deamidation Halftimes of GlyXxxAsnYyyGly: 95.4 days

## GlyTyrAsnGluGly (GYNEG; printed: GlyTyrAsnGluGly)
  First-Order Deamidation Halftimes of GlyXxxAsnYyyGly: 41.0 days

## GlyValAsnPheGly (GVNFG; printed: GlyValAsnPheGly)
  First-Order Deamidation Halftimes of GlyXxxAsnYyyGly: 66.6 days

## GlyAmCysAsnMetGly (CNMG; not fully specified (N-terminus); printed as GlyAmCysAsnMetGly)
  First-Order Deamidation Halftimes of GlyXxxAsnYyyGly: 56.5 days

## GlyHisGlnTrpGly (GHQWG; printed: GlyHisGlnTrpGly)
  First-Order Deamidation Halftimes of GlyXxxGlnYyyGly: 18000 days

## GlyGluGlnMetGly (GEQMG; printed: GlyGluGlnMetGly)
  First-Order Deamidation Halftimes of GlyXxxGlnYyyGly: 5200 days

## GlyArgGlnHisGly (GRQHG; printed: GlyArgGlnHisGly)
  First-Order Deamidation Halftimes of GlyXxxGlnYyyGly: 4900 days

## GlyPheGlnPheGly (GFQFG; printed: GlyPheGlnPheGly)
  First-Order Deamidation Halftimes of GlyXxxGlnYyyGly: 8200 days

## GlyMetAsnGlyGly (GMNGG; printed: GlyMetAsnGlyGly)
  First-Order Deamidation Halftimes of GlyXxxAsnYyyGly: 1.04 days

## GlyAspAsnPheGly (GDNFG; printed: GlyAspAsnPheGly)
  First-Order Deamidation Halftimes of GlyXxxAsnYyyGly: 70.1 days

## GlyArgAsnCysGly (GRNCG; printed: GlyArgAsnCysGly)
  First-Order Deamidation Halftimes of GlyXxxAsnYyyGly: 50.5 days

## GlySerAsnLysGly (GSNKG; printed: GlySerAsnLysGly)
  First-Order Deamidation Halftimes of GlyXxxAsnYyyGly: 55.5 days

## GlyTrpAsnAmCysGly
  First-Order Deamidation Halftimes of GlyXxxAsnYyyGly: 42.9 days

## GlyCysAsnTyrGly (GCNYG; printed: GlyCysAsnTyrGly)
  First-Order Deamidation Halftimes of GlyXxxAsnYyyGly: 83.9 days

## GlyCysAsnLeuGly (GCNLG; printed: GlyCysAsnLeuGly)
  First-Order Deamidation Halftimes of GlyXxxAsnYyyGly: 119 days

## GlyLysGlnLysGly (GKQKG; printed: GlyLysGlnLysGly)
  First-Order Deamidation Halftimes of GlyXxxGlnYyyGly: 4000 days

## GlyPheGlnThrGly (GFQTG; printed: GlyPheGlnThrGly)
  First-Order Deamidation Halftimes of GlyXxxGlnYyyGly: 5300 days

## GlyMetGlnProGly (GMQPG; printed: GlyMetGlnProGly)
  First-Order Deamidation Halftimes of GlyXxxGlnYyyGly: 7300 days

## GlyIleAsnArgGly (GINRG; printed: GlyIleAsnArgGly)
  First-Order Deamidation Halftimes of GlyXxxAsnYyyGly: 66.4 days

## GlyLeuGlnMetGly (GLQMG; printed: GlyLeuGlnMetGly)
  First-Order Deamidation Halftimes of GlyXxxGlnYyyGly: 4800 days

## GlyLeuAsnIleGly (GLNIG; printed: GlyLeuAsnIleGly)
  First-Order Deamidation Halftimes of GlyXxxAsnYyyGly: 391 days

## GlyGlyAsnCysGly (GGNCG; printed: GlyGlyAsnCysGly)
  First-Order Deamidation Halftimes of GlyXxxAsnYyyGly: 40.6 days

## GlyGlyAsnProGly (GGNPG; printed: GlyGlyAsnProGly)
  First-Order Deamidation Halftimes of GlyXxxAsnYyyGly: 7170 days

## GlyPheAsnCysGly (GFNCG; printed: GlyPheAsnCysGly)
  First-Order Deamidation Halftimes of GlyXxxAsnYyyGly: 46.5 days

## GlyValAsnValGly (GVNVG; printed: GlyValAsnValGly)
  First-Order Deamidation Halftimes of GlyXxxAsnYyyGly: 291 days

## GlyAspGlnTyrGly (GDQYG; printed: GlyAspGlnTyrGly)
  First-Order Deamidation Halftimes of GlyXxxGlnYyyGly: 13000 days

## GlyGluAsnIleGly (GENIG; printed: GlyGluAsnIleGly)
  First-Order Deamidation Halftimes of GlyXxxAsnYyyGly: 279 days

## GlyArgAsnAmCysGly
  First-Order Deamidation Halftimes of GlyXxxAsnYyyGly: 42.3 days

## GlyTrpGlnAspGly (GWQDG; printed: GlyTrpGlnAspGly)
  First-Order Deamidation Halftimes of GlyXxxGlnYyyGly: 8800 days

## GlyGlyAsnAmCysGly
  First-Order Deamidation Halftimes of GlyXxxAsnYyyGly: 27.6 days

## GlyHisGlnCysGly (GHQCG; printed: GlyHisGlnCysGly)
  First-Order Deamidation Halftimes of GlyXxxGlnYyyGly: 2200 days

## GlyMetAsnArgGly (GMNRG; printed: GlyMetAsnArgGly)
  First-Order Deamidation Halftimes of GlyXxxAsnYyyGly: 58.8 days

## GlyAlaGlnLysGly (GAQKG; printed: GlyAlaGlnLysGly)
  First-Order Deamidation Halftimes of GlyXxxGlnYyyGly: 5700 days

## GlyIleAsnProGly (GINPG; printed: GlyIleAsnProGly)
  First-Order Deamidation Halftimes of GlyXxxAsnYyyGly: 11600 days

## GlyGlyAsnSerGly (GGNSG; printed: GlyGlyAsnSerGly)
  First-Order Deamidation Halftimes of GlyXxxAsnYyyGly: 11.8 days

## GlyTyrAsnPheGly (GYNFG; printed: GlyTyrAsnPheGly)
  First-Order Deamidation Halftimes of GlyXxxAsnYyyGly: 58.0 days

## GlyProAsnProGly (GPNPG; printed: GlyProAsnProGly)
  First-Order Deamidation Halftimes of GlyXxxAsnYyyGly: 6590 days

## GlyLeuGlnProGly (GLQPG; printed: GlyLeuGlnProGly)
  First-Order Deamidation Halftimes of GlyXxxGlnYyyGly: 10000 days

## GlyAspAsnIleGly (GDNIG; printed: GlyAspAsnIleGly)
  First-Order Deamidation Halftimes of GlyXxxAsnYyyGly: 298 days

## GlyAmCysAsnTyrGly (CNYG; not fully specified (N-terminus); printed as GlyAmCysAsnTyrGly; also: glycinamide shown before Cys, linkage not given here)
  First-Order Deamidation Halftimes of GlyXxxAsnYyyGly: 78.8 days

## GlyGlyAsnGluGly (GGNEG; printed: GlyGlyAsnGluGly)
  First-Order Deamidation Halftimes of GlyXxxAsnYyyGly: 73.9 days

## GlyArgAsnSerGly (GRNSG; printed: GlyArgAsnSerGly)
  First-Order Deamidation Halftimes of GlyXxxAsnYyyGly: 14.3 days

## GlyTyrGlnCysGly (GYQCG; printed: GlyTyrGlnCysGly)
  First-Order Deamidation Halftimes of GlyXxxGlnYyyGly: 2200 days

## GlyIleAsnMetGly (GINMG; printed: GlyIleAsnMetGly)
  First-Order Deamidation Halftimes of GlyXxxAsnYyyGly: 58.8 days

## GlyLeuGlnGluGly (GLQEG; printed: GlyLeuGlnGluGly)
  First-Order Deamidation Halftimes of GlyXxxGlnYyyGly: 7400 days

## GlySerGlnIleGly (GSQIG; printed: GlySerGlnIleGly)
  First-Order Deamidation Halftimes of GlyXxxGlnYyyGly: 5900 days

## GlyIleGlnHisGly (GIQHG; printed: GlyIleGlnHisGly)
  First-Order Deamidation Halftimes of GlyXxxGlnYyyGly: 6100 days

## GlySerGlnTrpGly (GSQWG; printed: GlySerGlnTrpGly)
  First-Order Deamidation Halftimes of GlyXxxGlnYyyGly: 17000 days

## GlyMetGlnGlyGly (GMQGG; printed: GlyMetGlnGlyGly)
  First-Order Deamidation Halftimes of GlyXxxGlnYyyGly: 600 days

## GlyValAsnThrGly (GVNTG; printed: GlyValAsnThrGly)
  First-Order Deamidation Halftimes of GlyXxxAsnYyyGly: 49.9 days

## GlyLysAsnLeuGly (GKNLG; printed: GlyLysAsnLeuGly)
  First-Order Deamidation Halftimes of GlyXxxAsnYyyGly: 119 days

## GlyAspAsnTrpGly (GDNWG; printed: GlyAspAsnTrpGly)
  First-Order Deamidation Halftimes of GlyXxxAsnYyyGly: 80.3 days

## GlySerGlnThrGly (GSQTG; printed: GlySerGlnThrGly)
  First-Order Deamidation Halftimes of GlyXxxGlnYyyGly: 5400 days

## GlyGlyGlnTyrGly (GGQYG; printed: GlyGlyGlnTyrGly)
  First-Order Deamidation Halftimes of GlyXxxGlnYyyGly: 12000 days

## GlyValAsnAmCysGly
  First-Order Deamidation Halftimes of GlyXxxAsnYyyGly: 34.7 days

## GlyArgGlnTyrGly (GRQYG; printed: GlyArgGlnTyrGly)
  First-Order Deamidation Halftimes of GlyXxxGlnYyyGly: 9200 days

## GlyTyrAsnLeuGly (GYNLG; printed: GlyTyrAsnLeuGly)
  First-Order Deamidation Halftimes of GlyXxxAsnYyyGly: 118 days

## GlyArgAsnHisGly (GRNHG; printed: GlyArgAsnHisGly)
  First-Order Deamidation Halftimes of GlyXxxAsnYyyGly: 10.0 days

## GlyGluAsnThrGly (GENTG; printed: GlyGluAsnThrGly)
  First-Order Deamidation Halftimes of GlyXxxAsnYyyGly: 36.8 days

## GlySerGlnCysGly (GSQCG; printed: GlySerGlnCysGly)
  First-Order Deamidation Halftimes of GlyXxxGlnYyyGly: 2100 days

## GlyValGlnIleGly (GVQIG; printed: GlyValGlnIleGly)
  First-Order Deamidation Halftimes of GlyXxxGlnYyyGly: 5600 days

## GlyLeuGlnSerGly (GLQSG; printed: GlyLeuGlnSerGly)
  First-Order Deamidation Halftimes of GlyXxxGlnYyyGly: 5800 days

## GlyThrAsnSerGly (GTNSG; printed: GlyThrAsnSerGly)
  First-Order Deamidation Halftimes of GlyXxxAsnYyyGly: 17.1 days

## GlyIleAsnTrpGly (GINWG; printed: GlyIleAsnTrpGly)
  First-Order Deamidation Halftimes of GlyXxxAsnYyyGly: 86.7 days

## GlyHisGlnLeuGly (GHQLG; printed: GlyHisGlnLeuGly)
  First-Order Deamidation Halftimes of GlyXxxGlnYyyGly: 6600 days

## GlyGluAsnAlaGly (GENAG; printed: GlyGluAsnAlaGly)
  First-Order Deamidation Halftimes of GlyXxxAsnYyyGly: 25.8 days

## GlyArgGlnMetGly (GRQMG; printed: GlyArgGlnMetGly)
  First-Order Deamidation Halftimes of GlyXxxGlnYyyGly: 4100 days

## GlyAspAsnThrGly (GDNTG; printed: GlyAspAsnThrGly)
  First-Order Deamidation Halftimes of GlyXxxAsnYyyGly: 52.4 days

## GlyHisAsnAlaGly (GHNAG; printed: GlyHisAsnAlaGly)
  First-Order Deamidation Halftimes of GlyXxxAsnYyyGly: 24.6 days

## GlyGluAsnAspGly (GENDG; printed: GlyGluAsnAspGly)
  First-Order Deamidation Halftimes of GlyXxxAsnYyyGly: 32.0 days

## GlyTrpAsnIleGly (GWNIG; printed: GlyTrpAsnIleGly)
  First-Order Deamidation Halftimes of GlyXxxAsnYyyGly: 286 days

## GlyArgAsnProGly (GRNPG; printed: GlyArgAsnProGly)
  First-Order Deamidation Halftimes of GlyXxxAsnYyyGly: 5790 days

## GlySerAsnCysGly (GSNCG; printed: GlySerAsnCysGly)
  First-Order Deamidation Halftimes of GlyXxxAsnYyyGly: 60.2 days

## GlyLeuGlnTyrGly (GLQYG; printed: GlyLeuGlnTyrGly)
  First-Order Deamidation Halftimes of GlyXxxGlnYyyGly: 12000 days

## GlyPheGlnIleGly (GFQIG; printed: GlyPheGlnIleGly)
  First-Order Deamidation Halftimes of GlyXxxGlnYyyGly: 6400 days

## GlyCysAsnArgGly (GCNRG; printed: GlyCysAsnArgGly)
  First-Order Deamidation Halftimes of GlyXxxAsnYyyGly: 83.1 days

## GlyGlyAsnAspGly (GGNDG; printed: GlyGlyAsnAspGly)
  First-Order Deamidation Halftimes of GlyXxxAsnYyyGly: 28.0 days
